Measured values: US20220056125A1

Target: cynomolgus PAR-2 on cells (cynomolgus monkey)
Assay: cell-based or functional assay

B1: P24E1102 (antibody, human IgG4 S228P, kappa, V domains shown)
VH: QVQLVQSGAEVKKPGSSVKVSCKASGFSLSSYAISWVRQAPGQGLEWMGVIWGNQNVYYAQKFQGRVTITADESTSTAYMELSSLRSEDTAVYYCARWKGYKDYPFDYWGQGTLVTVSS
VL: EIVLTQSPATLSLSPGERATLSCRASQNVYKWLDWYQQKPGQAPRLLIYNANTRATGIPARFSGSGSGRDFTLTISSLEPEDFAVYYCQQHHSGWTFGGGTKVEIKR
With B1 the IC50 mean, calcium flux at SLIGKV EC80, Nomad line was 3.98 nM and the IC50 mean, β-arrestin at SLIGKV EC80, Nomad line was 15.2 nM.
